The results in this text go back to patent US20130273073A1 (University of California, published 2013).

In assay [1] the target is T1, human ROR1 (human, UniProt Q01973 30-406).
T1 construct: The immunogen was the extracellular portion (AA 1-406); also called hROR1; ROR1 protein
As to the kind of experiment: binding site mapping. The protocol:
(§1) As a second level screen, a series of deletion constructs were generated to determine the actual extracellular ROR1 domain to which the mAbs bind. […] As a final step, the actual amino acids targeted by these antibodies were determined. For this final screen, murinized human amino acids in the sub-domain fragments were generated to determine critical residues required for mAb binding (FIG. 15).

Assay [2] concerns the target human ROR1 with the glutamic acid at position 138 replaced with the murine lysine (human, UniProt Q01973 30-406, limits assumed). As to the kind of experiment: murinized residue screen, western blot. The method, then: as §1
Background: In western blotting, separated proteins are transferred to a membrane and probed.

A further assay deals with T2, murine ROR1 (murine, UniProt Q9Z139 30-406, limits assumed).
T2 construct: also called mouse ROR1
As to the kind of experiment: screen for binding to human and murine ROR1.

For assay [3], the target named is T1, human ROR1. As to the kind of experiment: standard techniques, method not stated (FIG. 16A).
Assay [4] concerns the target T1, human ROR1. As to the kind of experiment: cross blocking, competitor D10.
Assay [5] concerns the target human ROR1 with the isoleucine at position 111 replaced with the murine asparagine (human, UniProt Q01973 30-406, limits assumed). As to the kind of experiment: murinized residue screen, western blot. The method, then: as §1
Assay [6] addresses T1, human ROR1. As to the kind of experiment: standard techniques, method not stated (FIG. 16B).

T1 sequence (Q01973 30-406 limits assumed): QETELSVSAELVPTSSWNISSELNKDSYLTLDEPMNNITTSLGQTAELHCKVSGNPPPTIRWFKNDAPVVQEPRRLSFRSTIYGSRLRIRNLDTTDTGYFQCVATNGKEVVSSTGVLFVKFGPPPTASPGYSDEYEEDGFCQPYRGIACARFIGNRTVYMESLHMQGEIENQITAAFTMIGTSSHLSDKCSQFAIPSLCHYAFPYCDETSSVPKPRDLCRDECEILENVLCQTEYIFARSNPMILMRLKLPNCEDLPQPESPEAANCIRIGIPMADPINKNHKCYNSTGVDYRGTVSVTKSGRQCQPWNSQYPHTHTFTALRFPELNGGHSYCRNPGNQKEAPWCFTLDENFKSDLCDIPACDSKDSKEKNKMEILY
T2 sequence (Q9Z139 30-406 limits assumed): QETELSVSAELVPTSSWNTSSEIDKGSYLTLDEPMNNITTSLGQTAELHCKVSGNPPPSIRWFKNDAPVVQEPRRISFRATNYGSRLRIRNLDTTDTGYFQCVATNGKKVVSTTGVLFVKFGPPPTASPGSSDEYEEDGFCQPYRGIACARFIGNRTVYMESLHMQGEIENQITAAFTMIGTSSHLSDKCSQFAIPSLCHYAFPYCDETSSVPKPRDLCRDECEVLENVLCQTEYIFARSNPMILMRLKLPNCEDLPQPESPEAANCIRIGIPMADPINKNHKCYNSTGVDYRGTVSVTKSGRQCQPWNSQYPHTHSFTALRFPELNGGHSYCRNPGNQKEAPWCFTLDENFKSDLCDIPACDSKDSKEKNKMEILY
human ROR1 with the glutamic acid at position 138 replaced with the murine lysine, sequence (Q01973 30-406 E138K limits assumed): as the sequence (Q01973 30-406 limits assumed) above, with E109K counted along it
human ROR1 with the isoleucine at position 111 replaced with the murine asparagine, sequence (Q01973 30-406 I111N limits assumed): as the sequence (Q01973 30-406 limits assumed) above, with I82N counted along it

B1: G3 mouse anti-ROR1 mAb (antibody, V domains shown)
VH: QVQLQQPGAELVKPGTSVKLSCKASGYNFTNYWINWVKLRPGQGLEWIGEIYPGSGSTNYNEKFKSKATLTADTSSSTAYMQLSSLASEDSALYYCARDGNYYAMDYWGQGTSVTVSS
VL: DIQMTQTTSSLSASLGDRVTITCRASQDINNYLNWYQQKPDGTVKLLIYYTSALHSGVPSRFSGSGSGTDYSLTISNLEQEDIATYFCQQGNTLPPYTFGGGTKLEIK
With B1, the binding result with human ROR1 [1] is on record as “binds”.

B2: D10 mouse anti-ROR1 mAb (antibody, V domains shown)
VH: QVQLKESGPGLVAPSQTLSITCTVSGFSLTSYGVHWVRQPPGKGLEWLGVIWAGGFTNYNSALKSRLSISKDNSKSQVLLKMTSLQTDDTAMYYCARRGSSYSMDYWGQGTSVTVSS
VL: EIVLSQSPAITAASLGQKVTITCSASSNVSYIHWYQQRSGTSPRPWIYEISKLASGVPVRFSGSGSGTSYSLTISSMEAEDAAIYYCQQWNYPLITFGSGTKLEIQ
notes: also called D10 mAb; anti-ROR1 antibody D10
By Kd is commonly meant the concentration at which binding is half-saturated. High values mean a looser complex, low ones a tighter complex. Consider B2, for which the binding result (in assay [2]; in the assay with murine ROR1) was “no binding” throughout. Further, binding with human ROR1 [3] was characterised by a dissociation constant (Kd) of 40 nM.

B3: F2 mouse anti-ROR1 mAb (antibody, V domains shown)
VH: EVQLQQSGPELEKPGASVKISCKASGFAFTGYNMNWVKQTNGKSLEWIGSIDPYYGGSTYNQKFKDKATLTVDKSSSTAYMQLKSLTSDDSAVYYCARSPGGDYAMDYWGQGTSVTVSS
VL: DIKMTQSPSSMYASVGERVTITCKASQGINSYSGWFQQKPGKSPKTLIYRGNRLVDGVPSRFSGSGSGQDYSLTISSLEYEDMGIYYCLQYDEFPYTFGGGTKLEIK
Consider B3, for which the binding result in the assay with human ROR1 [4] is on record as “binds”.

B4: 4A5 mouse anti-ROR1 mAb (antibody, V domains shown)
VH: EVKLVESGGGLVKPGGSLKLSCAASGFTFSSYAMSWVRQIPEKRLEWVASISRGGTTYYPDSVKGRFTISRDNVRNILYLQMSSLRSEDTAMYYCGRYDYDGYYAMDYWGQGTSVTVSS
VL: DIKMTQSPSSMYASLGERVTITCKASPDINSYLSWFQQKPGKSPKTLIYRANRLVDGVPSRFSGGGSGQDYSLTINSLEYEDMGIYYCLQYDEFPYTFGGGTKLEMK
notes: also called 4A5 mAb; anti-ROR1 antibody 4A5
As to B4, the binding result (in assay [5]; with murine ROR1) was “no binding” in each case. The molecule further displayed a Kd with human ROR1 [6] of 4 nM.

B5: H10 mouse anti-ROR1 mAb (antibody, V domains shown)
VH: EVKLVESGGGLVKPGGSLKLSCAASGFTFSSYAMSWVRQTPEKRLEWVASISTGASAYFPDSVKGRFTISRDNARNILYLQMSSLRSEDTAMYYCARITTSTWYFDVWGAGTTVTVSS
VL: DIKMTQSPSSMYASLGERVTITCKASQDINSYLSWFQQKPGKSPKTLIYRANRLVDGVPSRFSGSGSGQDYSLTISSLEYEDMGIYYCLQYDEFPYTFGGGTKLEIK
As to B5, the binding result in the assay with human ROR1 [1] was “binds”.

B6: G6 mouse anti-ROR1 mAb (antibody, V domains shown)
VH: EVQLQQSGPELEKPGASVKISCKASGFAFTGYNMNWVKQTNGKSLEWIGSIDPYYGGSTYNQKFKDKATLTVDKSSSTAYMQLKSLTSDDSAVYYCARSPGGDYAMDYWGQGTSVTVSS
VL: DIKMTQSPSSMYASVGERVTITCKASQGINSYSGWFQQKPGKSPKTLIYRGNRLVDGVPSRFSGSGSGQDYSLTISSLEYEDMGIYYCLQYDEFPYTFGGGTKLEIK
In the case of B6, the binding result in the assay with human ROR1 [4] is “binds”.

B7: F12 mouse anti-ROR1 mAb (antibody, V domains shown)
VH: EVQLQQSGPELEKPGASVKISCKASGFAFTGYNMNWVKQTNGKSLEWIGSIDPYYGGSTYNQKFKDKATLTVDKSSSTAYMQLKSLTSDDSAVYYCARSPGGDYAMDYWGQGTSVTVSS
VL: DIKMTQSPSSMYASVGERVTITCKASQGINSYSGWFQQKPGKSPKTLIYRGNRLVDGVPSRFSGSGSGQDYSLTISSLEYEDMGIYYCLQYDEFPYTFGGGTKLEIK
On to B7, for which the binding result with human ROR1 [4] is reported as “binds”.

B8: G11 mouse anti-ROR1 mAb (antibody, V domains shown)
VH: EVKLVESGGGLVKPGGSLKLSCAASGFTFSSYAMSWVRQTPEKRLEWVASISTGASAYFPDSVKGRFTISRDNARNILYLQMSSLRSEDTAMYYCARITTSTWYFDVWGAGTTVTVSS
VL: DIKMTQSPSSMYASLGERVTITCKASQDINSYLSWFQQKPGKSPKTLIYRANRLVDGVPSRFSGSGSGQDYSLTISSLEYEDMGIYYCLQYDEFPYTFGGGTKLEIK
With B8, in the assay with human ROR1 [1], the binding result is “binds”.
